Substitutions are numbered along the chain they refer to.

Two molecules from paper PMC9956592 (2023) can be followed below.

Test [1] concerns the target T1, Ubiquitin Specific Peptidase 11 (USP11) (human, UniProt P51784 1-963, biotin (biotinylated USP11 in the yeast display assays)). Description: SPR. A general note: In SPR one partner is held on a chip, and binding of the other changes the refractive index at the surface.
Test [2] has as its target T1, Ubiquitin Specific Peptidase 11 (USP11). Description: SPR. The source holds these as a separate data set.

T1 sequence (P51784 whole entry): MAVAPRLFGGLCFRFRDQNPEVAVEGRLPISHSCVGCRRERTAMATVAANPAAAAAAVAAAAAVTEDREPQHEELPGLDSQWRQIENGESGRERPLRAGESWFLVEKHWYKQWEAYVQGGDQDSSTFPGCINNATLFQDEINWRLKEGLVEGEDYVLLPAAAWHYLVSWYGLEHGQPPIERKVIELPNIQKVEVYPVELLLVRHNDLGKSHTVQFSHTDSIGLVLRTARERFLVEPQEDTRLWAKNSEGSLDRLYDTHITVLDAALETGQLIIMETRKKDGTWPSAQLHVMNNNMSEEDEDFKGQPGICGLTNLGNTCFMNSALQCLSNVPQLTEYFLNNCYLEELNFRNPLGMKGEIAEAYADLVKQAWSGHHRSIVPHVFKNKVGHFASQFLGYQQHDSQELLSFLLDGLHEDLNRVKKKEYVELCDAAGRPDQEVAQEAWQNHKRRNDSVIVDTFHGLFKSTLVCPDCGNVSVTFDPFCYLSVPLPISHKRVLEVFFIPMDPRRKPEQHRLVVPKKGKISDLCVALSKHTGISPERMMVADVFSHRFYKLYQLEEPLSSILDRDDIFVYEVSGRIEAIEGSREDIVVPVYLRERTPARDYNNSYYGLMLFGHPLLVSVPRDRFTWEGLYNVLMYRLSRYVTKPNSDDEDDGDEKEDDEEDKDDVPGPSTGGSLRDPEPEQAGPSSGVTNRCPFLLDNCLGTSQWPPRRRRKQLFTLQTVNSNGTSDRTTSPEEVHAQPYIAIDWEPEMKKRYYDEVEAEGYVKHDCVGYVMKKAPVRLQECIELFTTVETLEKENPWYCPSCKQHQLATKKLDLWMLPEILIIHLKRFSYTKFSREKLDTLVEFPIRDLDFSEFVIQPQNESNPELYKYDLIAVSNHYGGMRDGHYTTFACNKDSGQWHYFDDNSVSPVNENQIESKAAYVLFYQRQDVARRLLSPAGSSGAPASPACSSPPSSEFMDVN

B1: scTGP USP11-C3, purified protein (scFv, V domains shown)
VH: QVQLVQSGAEVKKPGSSVKVSCKASGGTFSSYAISWVRQAPGQGLEWMGGIIPIFGTANYAQKFQGRVTITADESTSTAYMELSSLRSEDTAVYYCAREGGIGLSGWLDPWGQGTLVTVSS
VL: EIVLTQSPGTLSLSPGERATLFCRASQSVSSNLAWYQQKPGQAPRLLIYGASTRATGIPARFSGSGSGTEFTLTISSLQSEDFAVYYCQQYDDWPLTFGGGTKVDIK
As a reminder, the koff is a measure of how fast the partners let go of each other. Low values mean slow dissociation, high ones fast dissociation. A word on the Kd: it is the concentration at which binding is half-saturated. Higher therefore signals weaker binding. With B1, the koff in test [1] turned out to be 0.0038 s⁻¹. The same molecule came in with a Kd in test [2] of 160 nM.

B2: scTGP USP11-B6, purified protein (scFv, V domains shown)
VH: B1 VH with Q65L
VL: EIVMTQTPGTLCLSPGERATLSCRASQSVSNNNLAWYQQKPGQAPRLLIFGASNRATGIPDRFSGSGSGTDFTLTISSLQSEDFAVYYCQQYDSWPLTFGGGTKLEIK
Turning to B2, the koff in test [1] came out at 0.00089 s⁻¹. Also, the affinity in test [2], expressed as Kd, was 48 nM.
